Reference: paper PMC4521584

B1: WT MutS (Escherichia coli K-12) (protein)
chain: MSAIENFDAHTPMMQQYLRLKAQHPEILLFYRMGDFYELFYDDAKRASQLLDISLTKRGASAGEPIPMAGIPYHAVENYLAKLVNQGESVAICEQIGDPATSKGPVERKVVRIVTPGTISDEALLQERQDNLLAAIWQDSKGFGYATLDISSGRFRLSEPADRETMAAELQRTNPAELLYAEDFAEMSLIEGRRGLRRRPLWEFEIDTARQQLNLQFGTRDLVGFGVENAPRGLCAAGCLLQYAKDTQRTTLPHIRSITMEREQDSIIMDAATRRNLEITQNLAGGAENTLASVLDCTVTPMGSRMLKRWLHMPVRDTRVLLERQQTIGALQDFTAGLQPVLRQVGDLERILARLALRTARPRDLARMRHAFQQLPELRAQLETVDSAPVQALREKMGEFAELRDLLERAIIDTPPVLVRDGGVIASGYNEELDEWRALADGATDYLERLEVRERERTGLDTLKVGFNAVHGYYIQISRGQSHLAPINYMRRQTLKNAERYIIPELKEYEDKVLTSKGKALALEKQLYEELFDLLLPHLEALQQSASALAELDVLVNLAERAYTLNYTCPTFIDKPGIRITEGRHPVVEQVLNEPFIANPLNLSPQRRMLIITGPNMGGKSTYMRQTALIALMAYIGSYVPAQKVEIGPIDRIFTRVGAADDLASGRSTFMVEMTETANILHNATEYSLVLMDEIGRGTSTYDGLSLAWACAENLANKIKALTLFATHYFELTQLPEKMEGVANVHLDALEHGDTIAFMHSVQDGAASKSYGLAVAALAGVPKEVIKRARQKLRELESISPNAAATQVDGTQMSLLSVPEETSPAVEALENLDPDSLTPRQALEWIYRLKSLV
notes: full-length MutS from mutS gene in pET-3D, recombinant, purified; homodimer (can form tetramers)
B2: WT MutS (Escherichia coli K-12; I597A/M759D/P595A) (protein)
chain: MSAIENFDAHTPMMQQYLRLKAQHPEILLFYRMGDFYELFYDDAKRASQLLDISLTKRGASAGEPIPMAGIPYHAVENYLAKLVNQGESVAICEQIGDPATSKGPVERKVVRIVTPGTISDEALLQERQDNLLAAIWQDSKGFGYATLDISSGRFRLSEPADRETMAAELQRTNPAELLYAEDFAEMSLIEGRRGLRRRPLWEFEIDTARQQLNLQFGTRDLVGFGVENAPRGLCAAGCLLQYAKDTQRTTLPHIRSITMEREQDSIIMDAATRRNLEITQNLAGGAENTLASVLDCTVTPMGSRMLKRWLHMPVRDTRVLLERQQTIGALQDFTAGLQPVLRQVGDLERILARLALRTARPRDLARMRHAFQQLPELRAQLETVDSAPVQALREKMGEFAELRDLLERAIIDTPPVLVRDGGVIASGYNEELDEWRALADGATDYLERLEVRERERTGLDTLKVGFNAVHGYYIQISRGQSHLAPINYMRRQTLKNAERYIIPELKEYEDKVLTSKGKALALEKQLYEELFDLLLPHLEALQQSASALAELDVLVNLAERAYTLNYTCPTFIDKPGIRITEGRHPVVEQVLNEAFAANPLNLSPQRRMLIITGPNMGGKSTYMRQTALIALMAYIGSYVPAQKVEIGPIDRIFTRVGAADDLASGRSTFMVEMTETANILHNATEYSLVLMDEIGRGTSTYDGLSLAWACAENLANKIKALTLFATHYFELTQLPEKMEGVANVHLDALEHGDTIAFDHSVQDGAASKSYGLAVAALAGVPKEVIKRARQKLRELESISPNAAATQVDGTQMSLLSVPEETSPAVEALENLDPDSLTPRQALEWIYRLKSLV
notes: as for B1

Substrate: Nc1ncnc2c1ncn2[C@@H]1O[C@H](COP(=O)(O)OP(=O)(O)OP(=O)(O)O)[C@@H](O)[C@H]1O
Assay: ATPase assay coupled to NADH oxidation
Assay type: biochemical, Escherichia coli
Conditions: 5 μM MutS, 3.125-500 μM ATP

| Protein | Km | kcat |
| --- | --- | --- |
| B1 | 8.1 ± 0.7 µM | 0.138 ± 0.0033 s⁻¹ |
| B2 | 9.5 ± 1 µM | 0.0633 ± 0.0017 s⁻¹ |
